Legend:
[1] = target: T1, MC1 WT (Methanosarcina thermophila CHTI55, UniProt P12770 1-93); test: NMR chemical shift perturbation; EMSA: 10 mM Tris-HCl pH 7.5, 150 mM NaCl, 1 mM EDTA, 15 ug/ml BSA, 8% glycerol, 15 min at 20 C, 0.1 nM DNA, TBE gel; NMR PRE: 10 mM phosphate pH 6, 100 mM NaCl, 10% D2O; conditions: protein: recombinant; blunt
T1 sequence: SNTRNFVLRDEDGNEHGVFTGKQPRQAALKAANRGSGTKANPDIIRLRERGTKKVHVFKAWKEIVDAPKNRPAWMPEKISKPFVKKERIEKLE

[2] = target: T1, MC1 WT; test: EMSA; EMSA: 10 mM Tris-HCl pH 7.5, 150 mM NaCl, 1 mM EDTA, 15 ug/ml BSA, 8% glycerol, 15 min at 20 C, 0.1 nM DNA, TBE gel; NMR PRE: 10 mM phosphate pH 6, 100 mM NaCl, 10% D2O; conditions: protein: recombinant; label: 5'-32P on one strand; blunt
[3] = target: T1, MC1 WT; test: NMR PRE; Mn2+ (EDTA-chelated probe); protein:DNA 1:1.2; EMSA: 10 mM Tris-HCl pH 7.5, 150 mM NaCl, 1 mM EDTA, 15 ug/ml BSA, 8% glycerol, 15 min at 20 C, 0.1 nM DNA, TBE gel; NMR PRE: 10 mM phosphate pH 6, 100 mM NaCl, 10% D2O; conditions: protein: recombinant; label: paramagnetic dT-EDTA-Mn2+; blunt

B1: 15 bp NMR duplex (dsDNA)
DNA 1: AAAAACACACACCCA
DNA 2: TGGGTGTGTGTTTTT
B1: binds [1].

B2: 26 bp EMSA duplex (dsDNA)
DNA 1: GCCTCAAAAACACACACCCCCGACAG
DNA 2: CTGTCGGGGGTGTGTGTTTTTGAGGC
B2 was tested, and the Kd [2] was 1.2 ± 0.1 nM.

B3: DNA1* (dsDNA)
DNA 1: AAAAACACACACCCA
DNA 2: TGGGTGTGTGTTTTT
modifications: dT-EDTA (Mn2+) at the 5'-terminal T16 of strand 2
B3: binds [3].

From article PMC3928310, “Model of a DNA-Protein Complex of the Architectural Monomeric Protein MC1 from Euryarchaea”
